Experimental findings from PMC10320842 are described below.

Where a chain is given by its changes, count along the chain named.

What all share (assay): fluorescence polarization
The target in one data set is T1, hRev1 330-833 WT (human, UniProt Q9UBZ9 330-833).
T1 sequence: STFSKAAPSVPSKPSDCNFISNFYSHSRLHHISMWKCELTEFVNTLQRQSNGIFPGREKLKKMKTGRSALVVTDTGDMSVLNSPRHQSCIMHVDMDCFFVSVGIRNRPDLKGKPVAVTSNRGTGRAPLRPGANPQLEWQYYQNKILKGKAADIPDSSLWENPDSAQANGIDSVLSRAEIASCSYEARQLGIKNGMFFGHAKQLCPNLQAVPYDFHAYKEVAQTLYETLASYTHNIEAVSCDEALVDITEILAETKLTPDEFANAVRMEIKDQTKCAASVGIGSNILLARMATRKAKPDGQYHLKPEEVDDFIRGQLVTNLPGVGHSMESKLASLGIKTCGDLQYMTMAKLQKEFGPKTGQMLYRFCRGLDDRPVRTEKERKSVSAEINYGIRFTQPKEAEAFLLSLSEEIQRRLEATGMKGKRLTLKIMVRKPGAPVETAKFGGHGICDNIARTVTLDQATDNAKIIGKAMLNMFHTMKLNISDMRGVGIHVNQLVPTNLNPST

A further data set deals with T2, yRev1 305-746 (Saccharomyces cerevisiae, UniProt P12689 305-746).
T2 sequence: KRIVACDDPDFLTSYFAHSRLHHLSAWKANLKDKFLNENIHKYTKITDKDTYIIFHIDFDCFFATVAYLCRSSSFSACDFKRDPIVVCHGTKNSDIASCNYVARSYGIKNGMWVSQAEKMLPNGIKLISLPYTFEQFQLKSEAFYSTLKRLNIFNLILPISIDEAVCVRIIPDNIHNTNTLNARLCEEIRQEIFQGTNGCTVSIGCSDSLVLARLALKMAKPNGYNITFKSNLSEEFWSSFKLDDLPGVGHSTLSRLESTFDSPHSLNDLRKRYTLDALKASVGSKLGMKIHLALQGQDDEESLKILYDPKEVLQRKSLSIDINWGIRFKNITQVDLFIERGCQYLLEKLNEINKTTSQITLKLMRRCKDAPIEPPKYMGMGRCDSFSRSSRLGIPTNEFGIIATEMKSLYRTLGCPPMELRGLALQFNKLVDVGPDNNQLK

The target in another data set is T3, hRev1 330-833 EY (human, UniProt Q9UBZ9 330-833, E466A;Y470A).
T3 sequence: T1 sequence with E137A, Y141A

B1: ss-42-mer Myc G4 (structured_DNA)
DNA: TGAGGGTGGGTAGGGTGGGTGCGTCTGCGGCTGGCTCGAGGC
B1: the dissociation constant Kd with hRev1 330-833 WT is 4 ± 1 nM; with yRev1 305-746, 230 ± 50 nM; with hRev1 330-833 EY, 87 ± 10 nM.

B2: 13/42-mer G4 (mixed)
DNA 1: B1 DNA
DNA 2: TTTGCCTCGAGCCAGC
Consider B2, for which binding with hRev1 330-833 WT was characterised by a dissociation constant (Kd) of 31 ± 6 nM.

B3: 23/42-mer G4 (mixed)
DNA 1: B1 DNA
DNA 2: TTTGCCTCGAGCCAGCCGCAGACGCA
B3 displayed a Kd with hRev1 330-833 WT of 88 ± 12 nM.

B4: ss non-G4 Myc (ssDNA)
DNA: AGCGTGCGTAGCGTGCGTTATGAGATGAT
For B4, the Kd with yRev1 305-746 is 340 ± 60 nM; with hRev1 330-833 EY, 650 ± 130 nM.

B5: p/t non-G4 TBA (mixed)
DNA 1: TGCTTGCTGTGCTTGCTATGAGATGAT
DNA 2: ATCATCTCATA
As to B5, the Kd amounted to 450 ± 30 nM in the data set with yRev1 305-746 and 230 ± 30 nM with hRev1 330-833 EY.

B6: ss non-G4 Telo-4 (ssDNA)
DNA: TTGCGTTAGCGTTAGCGTTAGCGATATGAGATGAT
B6: the Kd in the data set with yRev1 305-746 was 310 ± 40 nM.

B7: p/t non-G4 Myc (mixed)
DNA 1: AGCGTGCGTAGCGTGCGTTATGAGATGAT
DNA 2: ATCATCTCATA
Consider B7, for which the figures for the Kd with yRev1 305-746 and in the data set with hRev1 330-833 EY were 480 ± 40 nM and 830 ± 120 nM, respectively.

B8: ss-42-mer non-G4 (ssDNA)
DNA: GTGAGATGTTGACCATGGGTGCGTCTGCGGCTGGCTCGAGGC
In the case of B8, the values for the Kd with hRev1 330-833 WT, in the data set with yRev1 305-746 and with hRev1 330-833 EY were 85 ± 11 nM, 340 ± 60 nM and 270 ± 50 nM, respectively.

B9: 13/42-mer non-G4 (mixed)
DNA 1: B8 DNA
DNA 2: TTTGCCTCGAGCCAGC
With B9, the Kd with hRev1 330-833 WT is 230 ± 30 nM; with hRev1 330-833 EY, 250 ± 30 nM.

B10: 23/42-mer non-G4 (mixed)
DNA 1: B8 DNA
DNA 2: TTTGCCTCGAGCCAGCCGCAGACGCA
For B10, the Kd with hRev1 330-833 WT stood at 210 ± 30 nM; in the data set with yRev1 305-746, 460 ± 50 nM; with hRev1 330-833 EY, 300 ± 40 nM.

B11: ss non-G4 TBA (ssDNA)
DNA: TGCTTGCTGTGCTTGCTATGAGATGAT
For the molecule B11, the Kd is 450 ± 70 nM in the data set with yRev1 305-746 and 150 ± 20 nM in the data set with hRev1 330-833 EY.
